Reference: article PMC11623273 (2024)

Molecular target: T1, soluble HCV E2 ectodomain (sE2) (hepatitis C virus)
T1 chain: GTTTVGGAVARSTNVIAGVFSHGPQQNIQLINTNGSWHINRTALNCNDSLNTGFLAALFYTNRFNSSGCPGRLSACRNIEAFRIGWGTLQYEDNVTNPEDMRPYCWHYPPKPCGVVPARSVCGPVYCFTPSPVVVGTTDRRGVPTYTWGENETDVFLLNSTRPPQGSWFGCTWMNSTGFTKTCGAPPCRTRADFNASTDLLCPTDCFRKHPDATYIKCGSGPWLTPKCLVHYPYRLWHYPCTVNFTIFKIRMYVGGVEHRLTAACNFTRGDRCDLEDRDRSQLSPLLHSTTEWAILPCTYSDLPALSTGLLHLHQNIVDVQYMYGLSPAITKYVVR

B1: Fab fragment of neutralizing antibody HCV1 (Fab, V domains shown)
VH: EVQLLESGGGVVQPGRSLRLSCTASGFTFNNYGMHWVRQTPGKGLEWLAVIWFDENNKYYADSVRGRFTISRDNSKNTLFLQMNSLKTEDTAMYYCARDISLVRDAFIYFDFWGLGTLVTVSS
VL: ELTLTQSPATLSLSPGERATLSCRASQSVSSYLAWYQQKPGQAPRLLIYDASNRATGIPARFSGSGSGTDFTLTISSLEPEDFAVYYCQQRSNWITFGQGTRLEIK
**Q.** Which Kd does the source give for B1 here?
**A.** Its Kd is 294 nM.
